Several values for one entry are separate records, joined by “and”; a condition that tells them apart may be missing. Equal entries are not always repeated. Bridge positions count the residues as written; N and C are the ends. Square brackets hold non-standard residues; d marks the D form. Ends that are not written are not given here. 1Nal = N[C@@H](Cc1cccc2ccccc12)C(=O)O; 2Nal = N[C@@H](Cc1ccc2ccccc2c1)C(=O)O; d2Nal = N[C@H](Cc1ccc2ccccc2c1)C(=O)O; Bta = N[C@@H](Cc1csc2ccccc12)C(=O)O; hCha = N[C@@H](CCC1CCCCC1)C(=O)O; dChg = N[C@@H](C(=O)O)C1CCCCC1; dTle = CC(C)(C)[C@@H](N)C(=O)O; Chg = N[C@H](C(=O)O)C1CCCCC1; Nle = CCCC[C@H](N)C(=O)O; Ac5c = NC1(C(=O)O)CCCC1; Apc = not defined here; Ava = NCCCCC(=O)O; GABA = NCCCC(=O)O; βAla = NCCC(=O)O
B1: Ac-hCha-c(Asp-His-D-Phe-Arg-Trp-Gaba-Lys)-NH2 (peptide)
peptide: Ac-[hCha]DH[dF]RW[GABA]K-NH2
modifications: lactam 2-8
SMILES: CC(=O)N[C@@H](CCC1CCCCC1)C(=O)N[C@H]1CC(=O)NCCCC[C@@H](C(N)=O)NC(=O)CCCNC(=O)[C@H](Cc2c[nH]c3ccccc23)NC(=O)[C@H](CCCNC(=N)N)NC(=O)[C@@H](Cc2ccccc2)NC(=O)[C@H](Cc2c[nH]cn2)NC1=O
B2: Ac-Nle-c(Cys-D-Ala-His-D-Phe-Arg-Trp-β-Ala-Cys)-NH2 (peptide)
peptide: Ac-[Nle]C[dA]H[dF]RW[βAla]C-NH2
modifications: disulfide 2-9
B3: Ac-Chg-c(Asp-His-D-Phe-Arg-Trp-Gaba-Lys)-NH2 (peptide)
peptide: Ac-[Chg]DH[dF]RW[GABA]K-NH2
modifications: lactam 2-8
B4: Ac-Nle-c(Cys-D-Ala-His-D-Phe-Arg-Trp-Gaba-Cys)-NH2 (peptide)
peptide: Ac-[Nle]C[dA]H[dF]RW[GABA]C-NH2
modifications: disulfide 2-9
B5: Ac-Arg-c(Asp-His-D-Phe-Arg-Trp-Ala-Lys)-NH2 (peptide)
peptide: Ac-RDH[dF]RWAK-NH2
modifications: lactam 2-8
B6: Ac-Nle-c(Cys-D-Tle-His-D-Phe-Arg-Trp-Cys)-NH2 (peptide)
peptide: Ac-[Nle]C[dTle]H[dF]RWC-NH2
modifications: disulfide 2-8
B7: Ac-D-Chg-c(Asp-His-D-Phe-Arg-Trp-Gaba-Lys)-NH2 (peptide)
peptide: Ac-[dChg]DH[dF]RW[GABA]K-NH2
modifications: lactam 2-8
B8: Ac-Nle-c(Cys-D-Ala-His-D-Phe-Arg-Trp-Apn-Cys)-NH2 (peptide)
peptide: Ac-[Nle]C[dA]H[dF]RW[Ava]C-NH2
modifications: disulfide 2-9
SMILES: CCCC[C@H](NC(C)=O)C(=O)N[C@H]1CSSC[C@@H](C(N)=O)NC(=O)CCCCNC(=O)[C@H](Cc2c[nH]c3ccccc23)NC(=O)[C@H](CCCNC(=N)N)NC(=O)[C@@H](Cc2ccccc2)NC(=O)[C@H](Cc2c[nH]cn2)NC(=O)[C@@H](C)NC1=O
B9: Ac-Nle-c(Asp-His-D-Phe-Arg-Trp-β-Ala-Lys)-NH2 (peptide)
peptide: Ac-[Nle]DH[dF]RW[βAla]K-NH2
modifications: lactam 2-8
SMILES: CCCC[C@H](NC(C)=O)C(=O)N[C@H]1CC(=O)NCCCC[C@@H](C(N)=O)NC(=O)CCNC(=O)[C@H](Cc2c[nH]c3ccccc23)NC(=O)[C@H](CCCNC(=N)N)NC(=O)[C@@H](Cc2ccccc2)NC(=O)[C@H](Cc2c[nH]cn2)NC1=O
B10: Ac-Nle-c(Asp-His-D-Phe-Arg-Trp-Gaba-Lys)-NH2 (peptide)
peptide: Ac-[Nle]DH[dF]RW[GABA]K-NH2
modifications: lactam 2-8
B11: c[Hydantoin(C(O)-(Asp-A5c))-D-2-Nal-Arg-Trp-Lys]-NH2 (peptide)
peptide: D[Ac5c][d2Nal]RWK-NH2
modifications: lactam 1-6; also: hydantoin ring: N-terminal N of Asp1 and backbone N of residue 2 bridged by one C(O), bridge at N via C(O), other end not in the chain
B12: c[Hydantoin(C(O)-(Asp-Apc))-D-2-Nal-Arg-Trp-Lys]-NH2 (peptide)
peptide: D[Apc][d2Nal]RWK-NH2
modifications: lactam 1-6; reading uncertain; also: hydantoin ring: N-terminal N of Asp1 and backbone N of residue 2 bridged by one C(O), bridge at N via C(O), other end not in the chain, printed as c[Hydantoin(C(O)-(Asp-Apc))-D-2-Nal-Arg-Trp-Lys]-NH2
B13: Ac-c(Cys-Glu-His-D-2-Nal-Arg-1-Nal-Ala-Cys)-Pro-Pro-Lys-Asp-β-[…]NH2 (peptide)
peptide: Ac-CEH[d2Nal]R[1Nal]ACPPKD[βAla]RKRRRQRRR-NH2
modifications: disulfide 1-8
B14: Ac-c(Cys-Glu-His-D-2-Nal-Arg-2-Nal-Ala-Cys)-Pro-Pro-Lys-Asp-β-[…]NH2 (peptide)
peptide: Ac-CEH[d2Nal]R[2Nal]ACPPKD[βAla]RRRRRRQRRR-NH2
modifications: disulfide 1-8
B15: Ac-c(Cys-Glu-His-D-2-Nal-Arg-Trp-Ala-Cys)-Pro-Pro-Lys-Asp-NH2 (peptide)
peptide: Ac-CEH[d2Nal]RWACPPKD-NH2
modifications: disulfide 1-8
SMILES: CC(=O)N[C@H]1CSSC[C@@H](C(=O)N2CCC[C@H]2C(=O)N2CCC[C@H]2C(=O)N[C@@H](CCCCN)C(=O)N[C@@H](CC(=O)O)C(N)=O)NC(=O)[C@H](C)NC(=O)[C@H](Cc2c[nH]c3ccccc23)NC(=O)[C@H](CCCNC(=N)N)NC(=O)[C@@H](Cc2ccc3ccccc3c2)NC(=O)[C@H](Cc2c[nH]cn2)NC(=O)[C@H](CCC(=O)O)NC1=O
B16: Ac-c(Cys-Glu-His-D-2-Nal-Arg-2-Nal-Ala-Cys)-Pro-Pro-Lys-Asp-β-Ala-Tyr-Gly-Arg-Lys-Lys-Arg-Arg-Gln-Arg-Arg-Arg-NH2 (peptide)
peptide: CEHXRXACPPKDXYGRKKRRQRRR
modifications: N-terminal Ac; D-2-Nal at 4; 2-Nal at 6; β-Ala at 13; disulfide Cys1-Cys8; C-terminal NH2
B17: Ac-c(Cys-Glu-His-D-2-Nal-Arg-Bal-Ala-Cys)-Pro-Pro-Lys-Asp-β-[…]NH2 (peptide)
peptide: Ac-CEH[d2Nal]R[Bta]ACPPKD[βAla]YGRKRRRQRRR-NH2
modifications: disulfide 1-8
B18: Ac-c(Cys-Glu-His-D-2-Nal-Arg-1-Nal-Ala-Cys)-Pro-Pro-Lys-Asp-β-[…]NH2 (peptide)
peptide: Ac-CEH[d2Nal]R[1Nal]ACPPKD[βAla]YGRRKRRQRRR-NH2
modifications: disulfide 1-8
SMILES: CC(=O)N[C@H]1CSSC[C@@H](C(=O)N2CCC[C@H]2C(=O)N2CCC[C@H]2C(=O)N[C@@H](CCCCN)C(=O)N[C@@H](CC(=O)O)C(=O)NCCC(=O)N[C@@H](Cc2ccc(O)cc2)C(=O)NCC(=O)N[C@@H](CCCNC(=N)N)C(=O)N[C@@H](CCCNC(=N)N)C(=O)N[C@@H](CCCCN)C(=O)N[C@@H](CCCNC(=N)N)C(=O)N[C@@H](CCCNC(=N)N)C(=O)N[C@@H](CCC(N)=O)C(=O)N[C@@H](CCCNC(=N)N)C(=O)N[C@@H](CCCNC(=N)N)C(=O)N[C@@H](CCCNC(=N)N)C(N)=O)NC(=O)[C@H](C)NC(=O)[C@H](Cc2cccc3ccccc23)NC(=O)[C@H](CCCNC(=N)N)NC(=O)[C@@H](Cc2ccc3ccccc3c2)NC(=O)[C@H](Cc2c[nH]cn2)NC(=O)[C@H](CCC(=O)O)NC1=O
B19: Ac-c(Cys-Glu-His-D-2-Nal-Arg-1-Nal-Ala-Cys)-Pro-Pro-Lys-Asp-β-[…]NH2 (peptide)
peptide: Ac-CEH[d2Nal]R[1Nal]ACPPKD[βAla]YGRKRRRQRRR-NH2
modifications: disulfide 1-8
B20: Ac-c(Cys-Glu-His-D-2-Nal-Arg-2-Nal-Ala-Cys)-Pro-Pro-Lys-Asp-β-[…]NH2 (peptide)
peptide: Ac-CEH[d2Nal]R[2Nal]ACPPKD[βAla]YGRRKRRQRRR-NH2
modifications: disulfide 1-8
B21: Ac-Nle-c(Cys-D-Ala-His-D-Phe-Arg-Trp-Cys)-Doc-Tyr-Gly-Arg-Lys-Lys-Arg-Arg-Gln-Arg-Arg-Arg-NH2 (peptide)
peptide: XCAHFRWCXYGRKKRRQRRR
modifications: N-terminal Ac; Nle at 1; D-Ala at 3; D-Phe at 5; Doc at 9; disulfide Cys2-Cys8; C-terminal NH2

What follows are binders tested against T1, hMC4-R (human, UniProt P32245 1-332) (assay: competition with [125I]-NDP-α-MSH, CHO-K1 membranes).
T1 construct: whole, on cells; Assayed as membranes of CHO-K1 cells expressing the receptor; also called hMC-R receptor subtype 4; melanocortin-4 (MC4-R)
Method: (§1) Cellular membranes used for the in vitro receptor binding assays were obtained from transgenic CHO-K1 cells stably expressing hMC-R receptor subtypes 1, 3, 4 or 5. […] The pellets were resuspended in the same buffer and centrifuged at 50,000 g for 10 minutes at approximately 4° C. The washed pellets containing the cellular membranes were stored at approximately −80° C.
(§2) Competitive inhibition of [¹²⁵I](Tyr²)-(Nle⁴-D-Phe⁷)α-MSH ([¹²⁵I]-NDP-α-MSH, Amersham Biosciences®) binding was carried out in polypropylene 96 well plates. Cell membranes (1-10 μg protein/well) prepared as described above were incubated in 50 mM Tris-HCl at pH 7.4 containing 0.2% bovine serum albumin (BSA), 5 mM MgCl₂, 1 mM CaCl₂ and 0.1 mg/mL bacitracin, with increasing concentrations of the test compound and 0.1-0.3 nM […] for approximately 90-120 minutes at approximately 37° C. Bound [¹²⁵I]-NDP-α-MSH ligand was separated from free [¹²⁵I]-NDP-α-MSH by filtration through GF/C glass fiber filter plates (Unifilter®; Packard) presoaked with 0.1% (w/v) polyethylenimine (PEI), using a Packard Filtermate® harvester. Filters were washed three times with 50 mM Tris-HCl at pH 7.4 at a temperature of approximately 0-4° C. and then assayed for radioactivity using a Packard Topcount® scintillation counter. Binding data were analyzed by computer-assisted non-linear regression analysis (XL fit; IDBS).

T1 sequence (P32245 whole entry): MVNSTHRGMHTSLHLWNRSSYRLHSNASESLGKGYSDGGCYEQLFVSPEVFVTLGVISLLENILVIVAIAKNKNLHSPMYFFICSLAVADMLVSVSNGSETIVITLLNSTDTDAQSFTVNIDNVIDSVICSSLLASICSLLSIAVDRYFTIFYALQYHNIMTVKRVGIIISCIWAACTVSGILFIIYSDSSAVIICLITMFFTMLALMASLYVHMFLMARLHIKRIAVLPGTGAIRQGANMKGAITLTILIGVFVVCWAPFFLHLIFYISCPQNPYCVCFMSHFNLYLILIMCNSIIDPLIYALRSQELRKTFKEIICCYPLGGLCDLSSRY

Binder	Ki
B1	56 nM
B2	5.55 nM
B3	22.5 nM
B4	3.76 nM and 3.12 nM
B5	1.01 nM
B6	11.2 nM
B7	2.99 nM
B8	7.58 nM
B9	0.617 nM
B10	1.04 nM

What follows are binders tested against T2, hMC3-R (human, UniProt P41968 1-323) in the same assay as above.
T2 construct: whole, on cells; Assayed as membranes of CHO-K1 cells expressing the receptor; also called hMC-R receptor subtype 3; melacortin-3 (MC3-R)
Method: as §1, §2

T2 sequence (P41968 whole entry): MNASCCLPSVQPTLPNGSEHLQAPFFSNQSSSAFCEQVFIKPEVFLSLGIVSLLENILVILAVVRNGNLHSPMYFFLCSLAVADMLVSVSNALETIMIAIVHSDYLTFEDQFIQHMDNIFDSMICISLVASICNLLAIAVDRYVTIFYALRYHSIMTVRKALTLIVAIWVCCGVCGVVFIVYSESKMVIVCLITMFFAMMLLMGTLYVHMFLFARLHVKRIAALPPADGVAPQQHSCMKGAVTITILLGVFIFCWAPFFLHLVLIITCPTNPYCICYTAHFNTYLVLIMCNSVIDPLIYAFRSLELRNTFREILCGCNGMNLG

Binder	Ki
B1	93.5 nM
B2	287 nM and 227 nM
B3	223 nM
B4	184 nM and 169 nM
B5	20.7 nM
B6	85.8 nM
B7	14.5 nM
B8	228 nM
B9	9320 nM
B10	9.89 nM

These binders were tested against T3, hMC5-R (human, UniProt P33032 1-325) in the same assay as above.
T3 construct: whole, on cells; Assayed as membranes of CHO-K1 cells expressing the receptor; also called hMC-R receptor subtype 5; melanocortin-5 receptor (MC5-R)
Method: as §1, §2

T3 sequence (P33032 whole entry): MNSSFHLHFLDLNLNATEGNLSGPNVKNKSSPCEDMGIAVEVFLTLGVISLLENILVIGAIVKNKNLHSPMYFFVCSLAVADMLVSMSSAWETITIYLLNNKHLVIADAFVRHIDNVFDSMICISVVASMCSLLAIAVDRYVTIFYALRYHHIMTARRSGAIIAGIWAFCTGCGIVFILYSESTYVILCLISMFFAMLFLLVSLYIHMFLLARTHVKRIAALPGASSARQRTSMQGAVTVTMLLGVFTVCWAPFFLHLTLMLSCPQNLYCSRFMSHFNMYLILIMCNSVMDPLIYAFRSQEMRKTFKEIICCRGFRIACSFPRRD

Binder	Ki
B1	747 nM
B2	766 nM and 496 nM
B3	609 nM
B4	956 nM and 358 nM
B5	783 nM
B6	40 nM
B7	164 nM
B8	859 nM
B9	10.9 nM
B10	16.3 nM

Each binder was assayed against T4, hMC1-R (human, UniProt Q01726 1-317) in the same assay as above.
T4 construct: whole, on cells; Assayed as membranes of CHO-K1 cells expressing the receptor; also called hMC-R receptor subtype 1; melanocyte-specific receptor (MC1-R)
Method: as §1, §2

T4 sequence (Q01726 whole entry): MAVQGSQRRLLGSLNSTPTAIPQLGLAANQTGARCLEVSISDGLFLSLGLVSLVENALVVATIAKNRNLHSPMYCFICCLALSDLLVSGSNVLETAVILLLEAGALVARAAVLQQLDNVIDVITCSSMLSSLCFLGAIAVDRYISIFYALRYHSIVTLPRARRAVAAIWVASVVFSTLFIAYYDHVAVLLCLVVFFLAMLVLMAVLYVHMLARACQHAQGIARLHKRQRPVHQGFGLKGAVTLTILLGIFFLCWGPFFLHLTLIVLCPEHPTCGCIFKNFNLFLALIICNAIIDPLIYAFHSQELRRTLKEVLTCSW

Binder	Ki
B1	0.721 nM
B2	0.995 nM and 1 nM
B3	0.884 nM
B4	0.848 nM and 0.536 nM
B5	0.68 nM
B6	12 nM
B7	0.227 nM
B8	1.1 nM
B9	0.0996 nM
B10	0.0506 nM

The binders below were run against T5, human melanocortin receptor subtype 1 (hMC1-R) (human, UniProt Q01726 1-317) (assay: [125I]-NDP-α-MSH competition, membranes).
T5 construct: whole, on cells; membranes of CHO-K1 cells
Method: as §1, §2

T5 sequence (Q01726 whole entry): as above

Binder	Ki [nM]
B11	9940
B12	1280
B13	2.12
B14	3.65
B15	49.9
B16	1.74
B17	2.14
B18	1.75
B19	1.5

These binders were tested against T6, human melanocortin receptor subtype 5 (hMC5-R) (human, UniProt P33032 1-325) (assay: [125I]-NDP-α-MSH competition, membranes).
T6 construct: whole, on cells; membranes of CHO-K1 cells
Method: as §1, §2

T6 sequence (P33032 whole entry): as the sequence (P33032 whole entry) above

Binder	Ki [nM]
B13	27.5
B15	218
B16	4.38
B20	15.3
B18	16.8

What follows are binders tested against T7, human melanocortin receptor subtype 4 (hMC4-R) (human, UniProt P32245 1-332) (assay: [125I]-NDP-α-MSH competition, membranes).
T7 construct: whole, on cells; membranes of CHO-K1 cells
Method: as §1, §2

T7 sequence (P32245 whole entry): as the sequence (P32245 whole entry) above

Binder	Ki [nM]
B11	44.6
B21	0.596
B12	266
B14	0.261
B15	0.569
B16	0.17
B17	0.624
B20	0.223
B18	0.15
B19	0.301

What follows are binders tested against T8, human melanocortin receptor subtype 3 (hMC3-R) (human, UniProt P41968 1-323) (assay: [125I]-NDP-α-MSH competition, membranes).
T8 construct: whole, on cells; membranes of CHO-K1 cells
Method: as §1, §2

T8 sequence (P41968 whole entry): as the sequence (P41968 whole entry) above

Binder	Ki [nM]
B11	2390
B21	0.699
B12	2760
B13	3.99
B14	2.26
B15	9
B16	0.59
B17	1.12
B20	1.12
B18	1.74
B19	1.61
